Measured values: the supplement of paper PMC10567573
± gives the standard deviation.

Test: protein stability index of a GFP-peptide fusion (GPS, HEK-293T) (PSI 1-6); higher = more stable
[1] = treatment: DMSO, c terminus: a fixed tail appended
[2] = treatment: MLN4924 1 uM, 8 h, c terminus: a fixed tail appended
[3] = treatment: DMSO, c terminus: native
[4] = treatment: MLN4924 1 uM, 8 h, c terminus: native
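Note: 24-mer peptide tiles fused after GFP, lentivirally expressed, FACS-sorted into six equal bins by GFP/DsRed ratio, decoded by Illumina sequencing, PSI is the read-weighted mean bin number.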

Row | Sequence | protein stability index [1] | protein stability index [2] | protein stability index [3] | protein stability index [4]
1 | LENLCENASTLRTINIKCHVHDPH [FBXO39] | 3.59 ± 0.27 | 3.59 ± 0.036 | – | –
2 | GREVELKPYIAAHFDVLPTEFTLG [PTPRD] | 3.01 ± 0.37 | 3 | – | –
3 | AVHLCNALVCQVDNDHKEAVGKMG [ZER1] | 3.75 ± 0.23 | 3.77 ± 0.13 | – | –
4 | PPARPRPRSPECRMIPGQPPASAR [IRX6] | 4.95 ± 0.21 | 4.9 ± 0.12 | – | –
5 | KIKDARKGPLVPFPNQKSEAAEPP [KMT5A] | 4.95 ± 0.22 | 5.11 ± 0.19 | – | –
6 | LLQQNKSIQSLTLEWNSLGTWDDA [LRRC45] | 2.65 ± 0.094 | 2.64 ± 0.42 | – | –
7 | ITESFTELARIVLLRHGMDRLWRP [RAB40B] | 2.84 ± 0.1 | 2.86 ± 0.25 | – | –
8 | TVAGKHQDLKYISPEIMASVLNGK [CDC25A] | 3.17 ± 0.2 | 3.3 ± 0.32 | – | –
9 | SPVTENSTSLSFLDSCNSLTPKST [MYBL2] | 4.91 ± 0.15 | 4.77 ± 0.14 | – | –
10 | ALAAATAAAAAAASAAAATAAFTT [SPAG8] | 3.04 ± 0.18 | 3.25 ± 0.18 | – | –
11 | GLNDALDNLRKVVPCYSKTQKLSK [NEUROD6] | 3.25 ± 0.15 | 3.42 ± 0.18 | – | –
12 | QDPLKFYKKIYFCHSCQLYLPSTE [IQUB] | 1.94 ± 0.41 | 2.12 ± 0.66 | – | –
13 | VSHVFMLLFNVKSPTDIQDSSIIR [RHOBTB3] | 2.81 ± 0.56 | 2.64 ± 0.48 | – | –
14 | MASNERDAISWYQKKIGAYDQQIW [PHTF1] | 2.51 ± 0.39 | 2.55 ± 0.16 | – | –
15 | MWRDLTDEEKQEYLNEYEAEKIEY [SMARCE1] | 4.26 ± 0.4 | 4.35 ± 0.21 | – | –
16 | KDVMEKREDSKEAEKSGEATDGAR [CHGA] | 5.79 ± 0.11 | 5.68 ± 0.37 | – | –
17 | RIFAHKIYLSTSSSKFYDLFLMDL [RHOBTB2] | 2.97 ± 0.31 | 2.86 ± 0.66 | – | –
18 | AMPDPAGPDGHLPAVATLCDLFDR [ESRRA] | 4.27 ± 0.23 | 4.4 ± 0.23 | – | –
19 | KDIAPEKQLLNSAVIAQQRRKPDP [DLC1] | 5 ± 0.086 | 5.25 ± 0.17 | – | –
20 | PVGRSWHSLTPVSSDHLFLFGGFT [KLHDC2] | 2.3 ± 0.53 | 1.87 ± 0.096 | – | –
21 | TREKAKFSDGEKCRREAFRRLGNG [PHTF1] | 3.65 ± 0.17 | 3.62 ± 0.39 | – | –
22 | PYTELRKQPLRKYVTPSDFDQLKQ [EFHC1] | 3.57 ± 0.2 | 3.51 ± 0.11 | – | –
23 | NHEEEVNTLRSQLGDRLNVEVDTA [KRT34] | 5.4 ± 0.33 | 5.441 ± 0.028 | – | –

Row | Sequence | protein stability index [1] | protein stability index [2] | protein stability index [3] | protein stability index [4]
24 | RIDSQFLIGDTLLVAPVLEPGKQE [MYORG] | 3.77 ± 0.18 | 3.81 ± 0.26 | – | –
25 | RRKGEMGLSAEDGVWAVIISHQQC [TRIM15] | 2.36 ± 0.49 | 2.16 ± 0.21 | – | –
26 | SDGVYAIVATLLILDICEDNVPDP [TMEM175] | 2.86 ± 0.39 | 2.84 ± 0.51 | – | –
27 | LLYSEVTASSLVKINLQGDIVDRG [ADD1] | 2.85 ± 0.52 | 2.42 ± 0.42 | – | –
28 | HQDVPSQDDSKPTQRQFTILNFND [AASDHPPT] | 4.59 ± 0.27 | 4.76 ± 0.32 | – | –
29 | GLHRRPGAGHCSASPGPAAPTARM | 3.76 ± 0.31 | 3.64 ± 0.31 | – | –
30 | VKRKKNVLRLCCKKLKIFAMPMQD [PRAME] | 2.29 ± 0.37 | 2.2 ± 0.15 | – | –
31 | SQAHSTLKLANHQRPVSRQVTCLR [TRAF3IP2] | 3.5 ± 0.21 | 3.61 ± 0.44 | – | –
32 | SKGWGRNYASIIRRDCMWSGFSAR [MYCL] | 2.35 ± 0.39 | 2.38 ± 0.31 | – | –
33 | SDSLLTGMAFFKMREMFFEDHIDD [CNOT7] | 2.58 ± 0.054 | 3.3 ± 0.48 | – | –
34 | RGNRLKTTSWGLLSLGALVALCWQ [SCNN1D] | 2.3 ± 0.26 | 2.16 ± 0.24 | – | –
35 | EVHVPPSSAVSGVKEWFGLGGEQA [MIA2] | 4.31 ± 0.22 | 4.29 ± 0.44 | – | –
36 | DESGYVSGYKHAGTYDQKVQGGK [TPPP] | – | – | 5.24 ± 0.15 | 5.4 ± 0.24
37 | AEKKQELDKLRNEWASHTAALTNK [SASS6] | 4.38 ± 0.26 | 4.79 ± 0.25 | – | –
38 | AVNLSVSTLPSLREEEEQVRAHAP [KCNG1] | 3.83 ± 0.54 | 4.21 ± 0.44 | – | –
39 | LDQAPKARKYFERLPGGGWTLRRT [DYRK1B] | 3.48 ± 0.27 | 3.33 ± 0.33 | – | –
40 | QDVVQAADLLLLTDLKTLCCEFLE [GAN] | 2.55 ± 0.13 | 2.6 ± 0.27 | – | –
41 | EDSKELRALRKMVSNMSGPSGEEE [CBY2] | 5.15 ± 0.21 | 5.25 ± 0.13 | – | –
42 | FTELRLLLDEEEALAKKFIDKNTQ [TRIM14] | 2.68 ± 0.53 | 3.44 ± 0.93 | – | –
43 | EVTVQRNCCLTLCNFSIPEELEFQ [ZER1] | 2.68 ± 0.26 | 2.59 ± 0.42 | – | –
44 | NDMRDTPLHRAAFTGRKICSQGS [OSBPL1A] | – | – | 2.87 ± 0.22 | 2.73 ± 0.39
45 | LTVRLHTQSVSECITEDGRTVAVG [PWWP2B] | 3.2 ± 0.33 | 3.15 ± 0.044 | – | –
46 | MAAGSEPESVEASPVVVEKSNSYP [KMT2E] | 5.3 ± 0.11 | 5.19 ± 0.24 | – | –

Row | Sequence | protein stability index [1] | protein stability index [2] | protein stability index [3] | protein stability index [4]
47 | VNPQDGTNTLTRIAENGVSERDSE [EHMT1] | 5.56 ± 0.22 | 5.51 ± 0.11 | – | –
48 | RTHSVIKEETNHSEMAEDLCKIGS [IKZF1] | 4.9 ± 0.25 | 4.85 ± 0.46 | – | –
49 | LPLAEREHVSRALCIHTGRELRCK [TRIB1] | 3.99 ± 0.32 | 3.93 ± 0.2 | – | –
50 | ELLVYIVFLVDICLLTYGMTSSSA [PKD2L1] | 3.19 ± 0.45 | 2.93 ± 0.67 | – | –
51 | DSGGSDVDLDPTDGKLFPSDGFRD [ELF3] | 5.38 ± 0.16 | 5.42 ± 0.15 | – | –
52 | GFRGSDDMELHRMSRMQSKEYPVV [TBX5] | 3.93 ± 0.31 | 3.98 ± 0.31 | – | –
53 | VSTWFANARRRLKKENKMTWAPKN [IRX6] | 2.57 ± 0.22 | 2.75 ± 0.13 | – | –
54 | FTVNPKPRVEYIDRPRCCLRGKEC [BTBD1] | 2.92 ± 0.11 | 3.23 ± 0.35 | – | –
55 | DDDKYKITLKYPHYFPVMKKCCIP [NLN] | 2.9 ± 0.23 | 2.49 ± 0.47 | – | –
56 | GYSGTSDRIRFTVNRRISIVGFGL [BTBD1] | 2.83 ± 0.27 | 2.87 ± 0.36 | – | –
57 | VGLIQAAQQLLCDEQAPQRQRLLA [DFFB] | 3.28 ± 0.12 | 3.19 ± 0.12 | – | –
58 | AFRSDDTKGHPRAVSQPFRLSSSL [CDC14A] | 3.43 ± 0.2 | 3.47 ± 0.26 | – | –
59 | AKPGSTEKGLPLRKTHVLLGRSHD [MFSD9] | 3.79 ± 0.23 | 3.86 ± 0.17 | – | –
60 | VIAKPSELTSVTAWMLCKLLDKAG [ALDH8A1] | 2.3 ± 0.2 | 2.3 ± 0.23 | – | –
61 | KSTWPRYSKPGLSMRLLESKKGLS [TCF25] | 2.92 ± 0.34 | 3.12 ± 0.17 | – | –
62 | QSWMWRGLTFLLPFLFFGHFWQLF [TMEM120A] | 2.66 ± 1.1 | 2.79 ± 0.25 | – | –
63 | APWLSLFPPEGNMEDKEMTGPQLP [ZNF263] | 4.27 ± 0.27 | 4.75 ± 0.28 | – | –
64 | LLKDKVRERIQILKTSEVTQHLPR [PTPN9] | 2.7 ± 0.32 | 2.99 ± 0.075 | – | –
65 | GVRIVSRGRTQLFSLNPRSGSLIT [PCDHGA10] | 2.08 ± 0.2 | 2.21 ± 0.25 | – | –
66 | LLGLRTFVAFAAKLWSFFIYLLRR [CTDNEP1] | 4.28 ± 0.38 | 4.16 ± 0.3 | – | –
67 | LTISAAFNIVYIYTSELYPTVIRN [SLC22A15] | 3.19 ± 0.14 | 3.13 ± 0.33 | – | –
68 | LFQRKLSWIKMTKLEYEEIALDLT [FAN1] | 3.02 ± 0.39 | 2.45 ± 0.24 | – | –
69 | VPIKPPCIPNGKENFSGGTSLWQN [CAMK2D] | 2.65 ± 0.12 | 2.71 ± 0.57 | – | –

Row | Sequence | protein stability index [1] | protein stability index [2] | protein stability index [3] | protein stability index [4]
70 | RYNFTPDPDFKDLGALKPLPACEF [NETO1] | 2.87 ± 0.19 | 2.93 ± 0.33 | – | –
71 | IRQLATSGRFIVIIPRTVIDGLDL [SMG5] | 2.88 ± 0.61 | 2.68 ± 0.7 | – | –
72 | GGLAESELRPRRGRCGPQAARAAG [POMT2] | 3.71 ± 0.17 | 3.75 ± 0.38 | – | –
73 | YDGMLSDVQSMPKTGILILILSII [MAGEA10] | 2.36 ± 0.78 | 2.12 ± 0.48 | – | –
74 | YMGKGSMTGLALKHMFERSFTQGE [MATN2] | 2.37 ± 0.23 | 3.07 ± 0.18 | – | –
75 | LKLTVVEDVTVGRRQAVAWLVAMH [ZFYVE21] | 3.15 ± 0.56 | 2.91 ± 0.57 | – | –
76 | KIYFTDSSSKWQRRDYLLLVMEGT [APMAP] | 2.68 ± 0.45 | 2.15 ± 0.37 | – | –
77 | YDGRSRLSSVECLDYTADEDGVWY [KLHL12] | 3.55 ± 0.4 | 3.76 ± 0.35 | – | –
78 | REKIMKLPLPESLKAYLTYFRDK [PCMTD1] | – | – | 2.05 ± 0.36 | 2.59 ± 0.34
79 | LASTSKPVVKLLHNRSNNKYSYTS [KCTD13] | 3.08 ± 0.2 | 3.27 ± 0.28 | – | –
80 | PDQEAEPQEAAGAQGRAGAPVPEP [EPB41L3] | 5.69 ± 0.21 | 5.69 ± 0.23 | – | –
81 | SKEDKDLDSSEGSSQEDEDLGLSE [SPANXN3] | 5.57 ± 0.33 | 5.62 ± 0.28 | – | –
82 | NSAEACQYVITHAKVNILLVENDQ [ACSBG2] | 2.18 ± 0.52 | 2.62 ± 0.25 | – | –
83 | YRWHINFTTFFIDCMAALGLAYDR [SCD] | 2.99 ± 0.65 | 2.61 ± 0.64 | – | –
84 | DLSKPPCRKAKEIRKERKRLKLMQ [ATE1] | 3.55 ± 0.13 | 3.64 ± 0.35 | – | –
85 | DLDETLIHSHHDGVLRPTVRPGTP [CTDNEP1] | 4.53 ± 0.086 | 4.67 ± 0.21 | – | –
86 | RVQAAAFGPGQTLLSSVHVLDLEA [ALKBH7] | 3.02 ± 0.42 | 3.3 ± 0.32 | – | –
87 | HVTLTLPPTQLEVNLEEIPGEGLL [C2CD2L] | 4.07 ± 0.18 | 3.96 ± 0.42 | – | –
88 | GSRTPGRSELVEGCGWRCPEHGDR [TRIM14] | 4.19 ± 0.3 | 4.48 ± 0.074 | – | –
89 | TSSKVNATVPSNMMSVNGQAKTHT [ACBD3] | 4.38 ± 0.13 | 4.45 ± 0.082 | – | –
